Assays:
Experiment in all cases: cell-based or functional assay
[1] = target: Env of HIV pseudovirus DU156.12 (HIV strain DU156.12)
[2] = target: Env of HIV pseudovirus JRCSF (HIV strain JRCSF) (UniProt P20871)
[3] = target: Env of HIV pseudovirus DU422.1 (HIV strain DU422.1)
[4] = target: Env of HIV pseudovirus CAP45 (HIV strain CAP45)
[5] = target: Env of HIV pseudovirus ZM214M (HIV strain ZM214M)
[6] = target: Env of HIV pseudovirus YU2 (HIV strain YU2) (UniProt P35961)
[7] = target: Env of HIV pseudovirus ADA (HIV strain ADA)
[8] = target: Env of HIV pseudovirus JRFL (HIV strain JRFL)
[9] = target: Env of HIV pseudovirus TRO.11 (HIV strain TRO.11)
[10] = target: Env of HIV pseudovirus PVO (HIV strain PVO)
[11] = target: Env of HIV pseudovirus MN (HIV strain MN) (UniProt P05877)
Sequence of UniProt P05877 (P05877 32-856 limits assumed): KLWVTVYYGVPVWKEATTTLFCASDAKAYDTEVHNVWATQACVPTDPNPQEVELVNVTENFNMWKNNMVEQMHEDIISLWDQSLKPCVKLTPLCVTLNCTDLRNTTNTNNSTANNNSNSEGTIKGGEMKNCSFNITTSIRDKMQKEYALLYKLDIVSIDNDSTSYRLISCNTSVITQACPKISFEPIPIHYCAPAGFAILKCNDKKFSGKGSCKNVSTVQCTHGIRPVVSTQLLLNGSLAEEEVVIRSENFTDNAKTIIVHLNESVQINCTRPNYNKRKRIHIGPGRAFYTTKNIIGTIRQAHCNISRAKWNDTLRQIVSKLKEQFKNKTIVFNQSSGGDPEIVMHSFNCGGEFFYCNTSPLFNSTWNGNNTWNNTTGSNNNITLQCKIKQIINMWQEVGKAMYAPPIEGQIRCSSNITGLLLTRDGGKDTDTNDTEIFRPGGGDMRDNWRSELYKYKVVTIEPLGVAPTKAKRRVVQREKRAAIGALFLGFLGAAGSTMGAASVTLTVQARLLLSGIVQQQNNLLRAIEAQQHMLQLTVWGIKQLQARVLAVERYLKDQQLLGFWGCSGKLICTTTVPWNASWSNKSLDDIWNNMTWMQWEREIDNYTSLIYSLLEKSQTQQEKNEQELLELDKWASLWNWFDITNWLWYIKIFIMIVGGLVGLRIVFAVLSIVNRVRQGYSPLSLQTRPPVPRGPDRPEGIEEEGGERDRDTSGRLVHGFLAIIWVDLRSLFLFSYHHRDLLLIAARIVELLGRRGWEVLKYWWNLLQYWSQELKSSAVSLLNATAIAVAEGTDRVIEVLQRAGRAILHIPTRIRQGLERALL

Sequence of UniProt P20871 (P20871 32-848 limits assumed): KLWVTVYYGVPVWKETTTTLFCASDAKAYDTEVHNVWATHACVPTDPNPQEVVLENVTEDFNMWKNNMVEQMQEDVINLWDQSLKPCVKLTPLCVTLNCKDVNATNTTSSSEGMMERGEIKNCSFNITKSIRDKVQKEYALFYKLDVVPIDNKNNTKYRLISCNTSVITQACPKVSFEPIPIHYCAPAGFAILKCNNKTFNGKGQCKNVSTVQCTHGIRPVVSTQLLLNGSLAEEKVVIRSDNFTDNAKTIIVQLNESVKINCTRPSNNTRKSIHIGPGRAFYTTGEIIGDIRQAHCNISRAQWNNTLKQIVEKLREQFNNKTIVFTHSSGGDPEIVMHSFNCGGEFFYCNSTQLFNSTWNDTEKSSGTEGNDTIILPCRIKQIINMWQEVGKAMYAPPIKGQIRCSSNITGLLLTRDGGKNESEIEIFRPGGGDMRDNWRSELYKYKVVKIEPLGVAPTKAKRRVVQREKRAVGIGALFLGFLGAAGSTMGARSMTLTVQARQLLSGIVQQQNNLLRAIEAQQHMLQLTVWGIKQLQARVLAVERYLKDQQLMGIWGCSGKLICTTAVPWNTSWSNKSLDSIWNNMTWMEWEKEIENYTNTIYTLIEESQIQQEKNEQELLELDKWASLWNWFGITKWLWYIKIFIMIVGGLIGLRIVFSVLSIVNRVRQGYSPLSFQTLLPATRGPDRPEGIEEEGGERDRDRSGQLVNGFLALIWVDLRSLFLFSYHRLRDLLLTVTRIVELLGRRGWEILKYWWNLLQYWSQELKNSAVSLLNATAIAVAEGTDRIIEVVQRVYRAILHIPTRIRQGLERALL
Sequence of UniProt P35961 (P35961 32-843 limits assumed): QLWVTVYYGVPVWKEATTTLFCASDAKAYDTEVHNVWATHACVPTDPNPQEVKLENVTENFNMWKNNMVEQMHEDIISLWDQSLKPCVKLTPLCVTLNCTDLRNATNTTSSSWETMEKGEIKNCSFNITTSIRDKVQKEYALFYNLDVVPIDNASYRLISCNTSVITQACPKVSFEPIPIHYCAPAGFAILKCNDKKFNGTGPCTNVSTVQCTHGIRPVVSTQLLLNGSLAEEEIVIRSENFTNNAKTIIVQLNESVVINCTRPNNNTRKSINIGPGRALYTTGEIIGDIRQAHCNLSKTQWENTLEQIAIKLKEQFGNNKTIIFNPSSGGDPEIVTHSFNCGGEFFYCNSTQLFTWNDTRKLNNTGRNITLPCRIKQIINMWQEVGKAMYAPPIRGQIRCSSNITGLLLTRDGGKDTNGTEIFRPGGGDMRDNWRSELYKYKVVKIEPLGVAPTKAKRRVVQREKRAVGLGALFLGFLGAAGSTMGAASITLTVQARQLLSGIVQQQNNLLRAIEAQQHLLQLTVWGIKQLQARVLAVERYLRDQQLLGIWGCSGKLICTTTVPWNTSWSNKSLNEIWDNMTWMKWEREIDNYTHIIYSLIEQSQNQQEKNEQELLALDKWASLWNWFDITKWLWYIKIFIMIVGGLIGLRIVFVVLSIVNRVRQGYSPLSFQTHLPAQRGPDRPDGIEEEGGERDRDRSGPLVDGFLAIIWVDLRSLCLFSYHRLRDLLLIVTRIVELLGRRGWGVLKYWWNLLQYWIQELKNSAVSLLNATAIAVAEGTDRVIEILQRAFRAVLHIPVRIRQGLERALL

Substance | IC50, pseudovirus neutralization (TZM-bl luciferase) [1] [µg/mL] | IC50, pseudovirus neutralization (TZM-bl luciferase) [2] [µg/mL] | IC50, pseudovirus neutralization (TZM-bl luciferase) [3] [µg/mL] | IC50, pseudovirus neutralization (TZM-bl luciferase) [4] [µg/mL] | IC50, pseudovirus neutralization (TZM-bl luciferase) [5] [µg/mL] | IC50, pseudovirus neutralization (TZM-bl luciferase) [6] [µg/mL] | IC50, pseudovirus neutralization (TZM-bl luciferase) [7] [µg/mL] | IC50, pseudovirus neutralization (TZM-bl luciferase) [8] [µg/mL] | IC50, pseudovirus neutralization (TZM-bl luciferase) [9] [µg/mL] | IC50, pseudovirus neutralization (TZM-bl luciferase) [10] [µg/mL] | IC50, pseudovirus neutralization (TZM-bl luciferase) [11] [µg/mL]
^ΔXFPG9Sulf (antibody) | 1.2 | < 0.02 | 14.3 | 0.03 | > 50 | > 50 | 37.4 | > 50 | > 50 | > 50 | > 50
^CHOPG9 (antibody) | 0.35 | < 0.02 | 10.9 | < 0.02 | > 50 | > 50 | 42.8 | > 50 | > 50 | > 50 | > 50
^ΔXFPG9SulfSia (antibody) | 0.9 | 0.03 | 6.6 | < 0.02 | > 50 | > 50 | 40.2 | > 50 | > 50 | > 50 | > 50
^ΔXFPG9 (antibody) | > 50 | 0.19 | > 50 | 0.65 | > 50 | > 50 | > 50 | > 50 | > 50 | > 50 | > 50

From US20180119164A1
